Results on one protein are retold here after patent US20050196758.

This data set deals with T1, trans-2-butenoyl-ACP (acyl carrier protein carrying the trans-2-butenoyl group), P0A6A8.
T1 chain: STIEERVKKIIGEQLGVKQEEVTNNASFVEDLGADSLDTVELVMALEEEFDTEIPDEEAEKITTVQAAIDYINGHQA

B1: His-tagged FabK (enoyl-ACP reductase II) of Streptococcus pneumoniae (protein)
chain: MKTRITELLKIDYPIFQGGMAWVADGDLAGAVSKAGGLGIIGGGNAPKEVVKANIDKIKSLTDKPFGVNIMLLSPFVEDIVDLVIEEGVKVVTTGAGNPSKYMERFHEAGIIVIPVVPSVALAKRMEKIGADAVIAEGMEAGGHIGKLTTMTLVRQVATAISIPVIAAGGIADGEGAAAGFMLGAEAVQVGTRFVVAKESNAHPNYKEKILKARDIDTTISAQHFGHAVRAIKNQLTRDFELAEKDAFKQEDPDLEIFEQMGAGALAKAVVHGDVDGGSVMAGQIAGLVSKEETAEEILKDLYYGAAKKIQEEASRWTGVVRND
With B1, the “specific activity (enoyl-ACP reductase activity, coupled in vitro assay, butyryl-ACP formation by gel electrophoresis)” value is given as 66±4 nmole product formed/min/mg FabK.
